The values that follow come from US20020114780A1, “Methods of increasing distribution of therapeutic agents” (priority 2000, published 2002).

The format of series [1] is in vivo. The note with it: for increase in Vd when co-infused with heparin: 5 μg protein in 5 μl, 0.2 μl/min, with heparin (18 μg) vs infused alone; for Vd/Vi ratio: low volume (5 μl) infusion, apparently with heparin co-infusion (FIG. 2b). On the procedure: (§1) The animals were anesthetized with ketamine (10 mg/kg) and xylazine (3 mg/Kg) via intraperitoneal injection and placed in a Kopf small animal stereotactic frame. A sagittal incision was made through the skin and a burr hole was placed into the skull with a twist drill. The cannula coordinates were: 0.5 mm anterior to bregma, 2.8 mm to the right of bregma, and 5 mm below the dura.
(§2) The infusion apparatus consisted of a hydraulic drive serially connected to a syringe pump. This depressed the plunger of one of two 250 μl Hamilton syringes connected by cannulas made from polyetheretherketone (PEEK) tubing (inner diameter 250 μm) and filled with distilled water. One of the 250 μl Hamilton syringes was secured to the stereotactic frame and was contiguous with an infusate-filled 10 or 50 μl Hamilton syringe. Since the system was non-compliant (zero dead space), the compression of the syringe pump of the infusion apparatus led to the measured release of infusate from the 10 or 50 μl Hamilton syringe in a uniform fashion. All infusions were performed with a 32 g cannula at 0.2 μl/min (6).
The vehicle was 4% mannitol in 10 mM HEPES. […]
(§3) The brains were cut into 40 μm serial coronal sections on a cryostat. Frozen sections were collected in a series in antifreeze solutions and stored at −70° C. Every 12th section was stained for immunohistochemistry.
Sections were washed in phosphate buffered saline (PBS) and incubated in 3% H2O2 for 20 minutes to block endogenous peroxidase activity. […] The sections were then incubated for 1 hour in biotinylated anti-mouse IgG secondary antibody (Vector Labs, 1:300). Antibody binding was visualized with streptavidin horseradish peroxidase (Vector Labs, 1:300) and VIP chromogen (Vector Labs). Sections were then coverslipped and examined under light microscopy. Vd was measured using NIH image analysis software.
The volume of distribution of BSA and the GDNF family of trophic factors was analyzed using a Macintosh-based image analysis system. Images of stained tissue slices were captured by a CCD camera using Adobe Photoshop software. Using NIH Image Analysis software, the area of distribution of infused protein in each tissue section was automatically determined using a threshold of 50% of the maximal stained optical density. The sum of the areas of infusion was used to determine the Vd in each striatum.

Another series deals with dopamine utilization. Briefly: Dopamine utilization: striatal DOPAC/DA ratio by HPLC 4 days after intrastriatal infusion. It is filed as in vivo, rat. On the procedure:
In the study analyzing dopamine metabolism following trophic factor administration, the animals were infused with 5 μg of NTN in 5 μl of vehicle with and without heparin (2.5 units) and sacrificed after 4 days. The vehicle was 4% mannitol in 10 mM HEPES. After completing infusion, the cannula was withdrawn at 1 mm/minute. Following the procedure, the animals used for immunohistochemical analysis were intracardially perfused with 4% paraformaldehyde. Brains were harvested and immersed overnight in 4% paraformaldehyde. The brains were cryoprotected through immersion in graded sucrose solution (20-30%) and frozen at […]. Animals to be used in HPLC studies were euthenized and the brains were harvested and fresh frozen at −70°.
Animals were sacrificed 4 days after intrastriatal infusion of 5 μl vehicle with 18 μg of heparin, 5 μg of NTN in 5 μl of vehicle or 5 μg of NTN in 5 μl of vehicle with 18 μg of heparin. After decapitation, the brains were rapidly removed and chilled in ice for 4 minutes. They were sliced 1 mm anterior and 2 mm posterior to the injection site using a chilled plastic brain mold. For biochemical studies, frozen punches from the striatum were taken from the injected and uninjected sides for comparison. […] Dopamine (DA), serotonin (5-HT) and their metabolites were measured by HPLC using Ultrasphere C-18 ion pair column, 5μ, 4.6 mm×25 cm (Beckman 235329): a Waters 717 plus autosampler, Waters 510 pump at 0.8 ml/min, and an amperometric electrochemical detector (EiCom CB-100) set at 0.78 V. The mobile phase contained 2-1 deionized water, 2.8 g L-heptanesulfonic acid sodium salt, 0.17 g EDTA, 20 ml triethylamine and 50 ml acetonitrile, pH was adjusted to 2.6 with 13 ml of 85% phosphoric acid. The results were recorded and analyzed with Waters Millenium 2010 Chromatography Manager software. Protein concentration in the tissue pellet was determined using the BCA Protein Assay Kit (Pierce #23225). The results are expressed as nM/hr/mg of protein.

Series [2] can be described thus: Histological examination of infused brains for hemorrhage and tissue damage. It is filed as in vivo, rat. As to conditions: heparin 0.5 units/μl, low volume studies. The method, then:
Studies were conducted to establish whether CED could be used to distribute trophic factors within the GDNF family over volumes that might be relevant to larger primate brains. High volume infusions (20 μl) of NTN with heparin were able to cover significant volumes of the rat brain (FIG. 3). […] Maximum Vd attained following co-infusion with heparin was 37.3 mm^3, compared to a maximum Vd of 11.0 mm^3 in control animals (FIG. 3). At this infusion volume, in 4 out of 6 animals in which NTN was co-infused with heparin, the striatum was completely stained, as opposed to none of the subjects infused with NTN alone. There was no evidence of hemorrhage (H&E stain) in any of the specimens following the high volume infusions.
All brains had well demarcated areas of antibody staining following immunohistochemistry. In all brains, there was no evidence of tissue damage, with the exception of the needle track and some non-specific drill-induced cortical lesions. There was no evidence of hemorrhage in any animal at 0 or 4 days after infusion.
This emphasizes the importance of receptor binding in drug distribution as well.

A short description of series [3]: CED high volume (20 μl) NTN intrastriatal infusion, volume of distribution by immunohistochemistry. It is filed as in vivo, rat. On the procedure: as §1, §2
The vehicle was 4% mannitol in 10 mM HEPES. In the high volume experiment, 50 μg of NTN in 20 μl of vehicle with (n=6) and without (n=6) heparin (71 μg) was delivered into the striatum.
as §3
Sections were washed in phosphate buffered saline (PBS) and incubated in 3% H2O2 for 20 minutes to block endogenous peroxidase activity. […] Vd was measured using NIH image analysis software.
The volume of distribution of BSA and the GDNF family of trophic factors was analyzed using a Macintosh-based image analysis system. […] Using NIH Image Analysis software, the area of distribution of infused protein in each tissue section was automatically determined using a threshold of 50% of the maximal stained optical density. […]

Consider Artemin, for which the “increase in Vd when co-infused with heparin” value (“increase in Vd when co-infused” below) in series [1] is recorded as “greater than 10 fold”.

heparin [reference compound]: in the series with dopamine utilization (5 μl vehicle with 18 μg heparin, 4 days), the “DOPAC/DA levels compared to the uninjected (left) striatum” value is listed as “no change”. In series [2], the “gross or microscopic hemorrhage” value is on record as “no evidence of gross or microscopic hemorrhage”.

B1: Neurturin (protein, UniProt Q99748 96-197, looked up)
Neurturin: ARLGARPCGLRELEVRVSELGLGYASDETVLFRYCAGACEAAARVYDLGLRRLRQRRRLRRERVRAQPCCRPTAYEDEVSFLDAHSRYHTVHELSARECACV
notes: trophic factor of the GDNF ligand family
As for B1, in series [1], the “increase in Vd when co-infused” value amounted to 7 fold and the Vd/Vi ratio stood at 4.6. Further, the “animals in which the striatum was completely stained” value in series [3] (20 μl infusion, n=6 per group) is reported as “none”. Moreover, in series [3] (rat, in vivo), the “Maximum Vd” value is listed as 11.0 mm^3 and the Vd was 7.7+/−1.1 mm^3. In addition, the DOPAC/DA ratio in the series with dopamine utilization (5 μg NTN in 5 μl, with or without heparin 18 μg, 4 days after infusion, mean +/- S.E.) is on record as 146+/−14.2 percentage of the uninjected h. In addition, the “DOPAC/DA ratio compared to the vehicle+heparin group” value with dopamine utilization (4 days after right striatal infusion, Fisher test) is recorded as “significantly increased”.

B2: GDNF (protein, UniProt P39905 78-211, looked up)
Glial cell line-derived …: SPDKQMAVLPRRERNRQAAAANPENSRGKGRRGQRGKNRGCVLTAIHLNVTDLGLGYETKEELIFRYCSGSCDAAETTYDKILKNLSRNRRLVSDKVGQACCRPIAFDDDLSFLDDNLVYHILRKHSAKRCGCI
notes: glial cell line-derived neurotrophic factor, trophic factor provided by Genentech
Regarding B2, in series [1], the “increase in Vd when co-infused” value turned out to be 5 fold and the Vd/Vi ratio is on record as 5.0. Besides, in series [1] (rat, in vivo), the “effect of heparin co-infusion on Vd” value was “significantly increased”.
